# Target: T1, CD47 on human cells (Raji, Jurkat, red blood cells) (human, UniProt Q08722 19-311)
# T1 construct: Endogenous CD47 on Raji, Jurkat and red blood cells; also called IAP; MER6
# Assay: flow cytometry competition: antibody and a fixed concentration of biotin-human SIRPα-Fc co-incubated with CD47-expressing cells (Jurkat in Example 2; the legend also names Raji), streptavidin-PE
# Method: Example 2. […] CD47-expressing cells (Jurkat) (1E5 cells/well) were washed and resuspended in FACS buffer (1×PBS with 2% FBS). […] Flow cytometric analyses were performed using the Cytomics FC 500 (Beckman Coulter Inc.).
# IgG isotype control (an anti-PD1 antibody) were used as a negative control.
row,IC50 (read off the curve) [µg/mL],Binder
1,~1,"Clone M1 (antibody, human IgG4 S228P, lambda, V domains shown, also called antibody clone M1) VH: QVQLQQWGAGLLKPSETLSLTCAVYGGSFSGYYWSWIRQPPGKGLEWIGEINHSGSTNYNPSLKSRVTISVDTSKNQFSLRLSSVTAADTAMYYCARFTGRPYYGMDVWGQGTTVTVSS VL: LSYELTQPPSVSATPGQRVTISCSGSESNIGSHKVKWYQQFAGAAPRLLIHGNDQRRSGVPDRFSGSKSGTSASLAISGLQSEDEADYYCAAWDDSLNGRVFGGGTKLTVLG"
2,~0.2,"Clone M1 #46 (antibody, human IgG4 S228P, lambda, V domains shown) VH: QVQLQQWGAGLLKPSETLSLTCAVYGGSFSGYYWSWIRQPPGKGLEWIGEINHSGSTNYNPSLKSRVTISVDTSKNQFSLRLSSVTAADTAMYYCARFSGRPYYGMDVWGQGTTVTVSS VL: LSYELTQPPSVSATPGQRVTISCSGSESNIGSHKVKWYQQFAGAAPRLLIHGNDQRRSGVPDRFSGSKSGTSASLAISGLQSEDEADYYCAAWDDSLYGRVFGGGTKLTVLG"
3,~0.08,"Clone M1 #21 (antibody, human IgG4 S228P, lambda, V domains shown) VH: QVQLQQWGAGLLKPSETLSLTCAVYGGSFSGYYWSWIRQPPGKGLEWIGEINQSGSTNYNPSLKSRVTISVDTSKNQFSLRLSSVTAADTAMYYCARFTGRPYYGMDVWGQGTTVTVSS VL: LSYELTQPPSVSATPGQRVTISCSGSESNIGSHKVKWYQQFAGAAPRLLIHGNDQRFSGVPDRFSGSKSGTSASLAISGLQSEDEADYYCAAWDDSLYGRVFGGGTKLTVLG"
4,~0.06,"Clone M1 #11 (antibody, human IgG4 S228P, lambda, V domains shown) VH: QVQLQQWGAGLLKPSETLSLTCAVYGGSFSGYYWSWIRQPPGKGLEWIGEINHSGSTNYNPSLKSRVTISVDTSKNQFSLRLSSVTAADTAMYYCARFHGRPYYGMDVWGQGTTVTVSS VL: LSYELTQPPSVSATPGQRVTISCSGSESNIGSHKVKWYQQFAGAAPRLLIHGNDQRRRGVPDRFSGSKSGTSASLAISGLQSEDEADYYCAAWDDSLYGRVFGGGTKLTVLG"
